For series [1], the target named is T1, SpCas9 wild type (Streptococcus pyogenes, UniProt Q99ZW2 1-1368). In words: cryo-EM; 1 mM Mg2+; checkpoint state; SEC binding: 20 mM HEPES-KOH pH 7.5, 200 mM KCl, 2 mM MgCl2, room temperature, 371 pmol dCas9, 400 pmol sgRNA, 250 pmol DNA; crystal complex: 20 mM HEPES-KOH pH 7.5, 250 mM KCl, 1 mM DTT, crystals at 20 C. To be noted: protein: recombinant; tags: His6-MBP-TEV tag removed by TEV protease; sgRNA strand 1; TS/NTS duplex with internal mismatched region; 18 nt guide-TS complementarity.

Series [2] addresses T1, SpCas9 wild type. In words: cryo-EM; 10 mM Mg2+; catalytically active state, TS and NTS cleaved; SEC binding: 20 mM HEPES-KOH pH 7.5, 200 mM KCl, 2 mM MgCl2, room temperature, 371 pmol dCas9, 400 pmol sgRNA, 250 pmol DNA; crystal complex: 20 mM HEPES-KOH pH 7.5, 250 mM KCl, 1 mM DTT, crystals at 20 C. The conditions noted are these: protein: recombinant; tags: His6-MBP-TEV tag removed by TEV protease; sgRNA strand 1; TS/NTS duplex with internal mismatched region; 18 nt guide-TS complementarity; both DNA strands cleaved in structure.

T1 sequence (Q99ZW2 whole entry): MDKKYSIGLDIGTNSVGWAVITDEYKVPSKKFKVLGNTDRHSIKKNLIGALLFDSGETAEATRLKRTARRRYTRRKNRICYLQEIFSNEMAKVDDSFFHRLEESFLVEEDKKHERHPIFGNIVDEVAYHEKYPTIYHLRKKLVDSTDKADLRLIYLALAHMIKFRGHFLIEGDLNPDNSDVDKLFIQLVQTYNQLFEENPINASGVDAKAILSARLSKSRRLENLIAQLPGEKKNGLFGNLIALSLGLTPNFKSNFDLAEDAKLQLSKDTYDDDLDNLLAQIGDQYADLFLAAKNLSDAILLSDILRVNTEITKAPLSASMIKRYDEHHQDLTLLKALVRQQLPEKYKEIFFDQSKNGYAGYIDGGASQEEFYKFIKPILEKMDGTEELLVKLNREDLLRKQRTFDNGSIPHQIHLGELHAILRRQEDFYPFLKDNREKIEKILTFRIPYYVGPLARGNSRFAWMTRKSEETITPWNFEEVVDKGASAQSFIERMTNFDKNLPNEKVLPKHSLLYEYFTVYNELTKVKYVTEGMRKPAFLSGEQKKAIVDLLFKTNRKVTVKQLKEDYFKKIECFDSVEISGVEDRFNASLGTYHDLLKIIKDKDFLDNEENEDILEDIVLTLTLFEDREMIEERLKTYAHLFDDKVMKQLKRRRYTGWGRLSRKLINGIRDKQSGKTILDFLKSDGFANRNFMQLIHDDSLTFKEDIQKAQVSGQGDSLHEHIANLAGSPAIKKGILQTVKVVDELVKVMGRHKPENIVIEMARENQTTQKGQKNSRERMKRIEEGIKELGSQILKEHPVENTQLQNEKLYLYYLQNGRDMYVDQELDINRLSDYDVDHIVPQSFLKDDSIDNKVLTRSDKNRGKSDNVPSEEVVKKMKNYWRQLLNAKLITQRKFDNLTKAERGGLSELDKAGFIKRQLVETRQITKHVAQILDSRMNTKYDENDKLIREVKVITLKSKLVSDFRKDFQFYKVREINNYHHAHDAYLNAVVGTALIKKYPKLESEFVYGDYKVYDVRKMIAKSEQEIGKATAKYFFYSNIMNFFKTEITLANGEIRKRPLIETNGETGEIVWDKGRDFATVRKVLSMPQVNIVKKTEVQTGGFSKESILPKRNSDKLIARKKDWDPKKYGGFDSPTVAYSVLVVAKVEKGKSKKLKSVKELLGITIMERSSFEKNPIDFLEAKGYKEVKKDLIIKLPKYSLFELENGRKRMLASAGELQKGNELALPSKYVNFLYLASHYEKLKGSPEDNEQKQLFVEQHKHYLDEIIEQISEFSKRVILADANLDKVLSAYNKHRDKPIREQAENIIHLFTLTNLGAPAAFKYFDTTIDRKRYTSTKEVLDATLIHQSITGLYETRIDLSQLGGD

B1: 18-nt match checkpoint: λ1 sgRNA (3-stem loop) / TS / NTS (mixed)
RNA: GACGCAUAAAGAUGAGACGCGUUUUAGAGCUAGAAAUAGCAAGUUAAAAUAAGGCUAGUCCGUUAUCAACUUGAAAAAGUGGCACCGAGUCGGUGCUUUU
DNA 1: CGTGATTCCAGCGTCTCATCTTTATGCGAGTGTACTCG
DNA 2: CGAGTACACTATTGCGGGACGCTATTATTGGAATCACG
Consider B1, for which the binding result in the series with SpCas9 wild type [1] is given as “binds”.

B2: 18-nt match catalytic: λ1 sgRNA (3-stem loop) / TS / NTS (mixed)
RNA: B1 RNA
DNA 1: CGTGATTCCAGCGTCTCATCTTTATGCGAGTGTACTCGTCTTGC
DNA 2: GCAAGACGAGTACACTCGCATAAAACGCTATTATTGGAATCACG
For the molecule B2, the binding result with SpCas9 wild type [2] was “binds”.

These data come from publication PMC9433323, “R-loop formation and conformational activation mechanisms of Cas9”.
